In publication doi:10.1101/2023.11.17.567542 (bioRxiv, 2023):

Target: T1, HypD (Escherichia coli, UniProt P24192 1-373)
T1 sequence (looked up): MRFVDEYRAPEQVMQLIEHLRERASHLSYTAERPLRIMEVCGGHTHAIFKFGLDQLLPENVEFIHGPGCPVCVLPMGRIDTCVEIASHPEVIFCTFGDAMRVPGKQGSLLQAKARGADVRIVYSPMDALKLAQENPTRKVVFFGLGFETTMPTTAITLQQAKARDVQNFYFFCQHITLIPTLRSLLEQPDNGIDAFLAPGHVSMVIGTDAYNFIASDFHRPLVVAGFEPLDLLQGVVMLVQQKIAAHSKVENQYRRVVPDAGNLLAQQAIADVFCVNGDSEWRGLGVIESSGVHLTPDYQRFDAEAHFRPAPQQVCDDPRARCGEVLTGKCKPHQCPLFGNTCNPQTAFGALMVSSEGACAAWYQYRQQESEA
Experiment: pull-down

binding result: binds
B1: StrepII-tagged HypC with amino acid exchange C2A (natural protein, Escherichia coli, UniProt P0AAM3 2-90, looked up)
chain: AIGVPGQIRTIDGNQAKVDVCGIQRDVDLTLVGSCDENGQPRVGQWVLVHVGFAMSVINEAEARDTLDALQNMFDVEPDVGALLYGEEK
